{"source": "the DeepSol protein solubility set"}
{"test": "soluble on expression in E. coli; label from the status in PepcDB or PDB records"}
{"sequence": "MGSDKIHHHHHHMDNLVDVFCDVDDFCAVFMPQWKKQCVTDGTRKRQRSSRMDMSEIMTIIILFHTSHHRDFKNYYTGYLARFFKSDFPHLLSYTRFLELMPTAVVPLCSYFSSIRSLPTGIEFVDSTSVKVCHNLRIPRHKTLSGLARRGKGTMGWFYGFKLHLIVNHKGGIVAAKITPANTHDTKPVSGMVVNAMDKLYADKGYISKALASELLEQGVTLVNNVRKNMKKKVLSLWDRAMLSRRFIIETINDQLKNISQIEHSRHRSVHGFMLNMIGGLIAYQLKESKPQLNITDVDFNAISVMA", "soluble on expression in E. coli": "not soluble"}
{"sequence": "HPGEVIVLIHGLMRTYVSMKPLKAYLEAQGYQVYLYKYPSARYNIQEHGVYLNQFITTILENNPAIKIHFVTHSLGGIIVREALSKLSQKQLKHVGYLIMLAPPNQGSKLAKFSIKLFPMISYFIKPLAELSSEQTSYVHRVPVPDIKMGIIAGRFDAKVPPDYARLQGQTEQVIINNTHTFIMYDSKVKKLVLSFLEKGKFE", "soluble on expression in E. coli": "not soluble"}
{"sequence": "MVITKIVGHIDDLSHQIKKVDWLEVEWEDLNKRILRKETENGTDIAIKLENSGTLRYGDVLYESDDTLIAIRTKLEKVYVIKPQTMQEMGKMAFEIGNRHTMCIIEDDEILVRYDKTLEKLIDEVGVSYEQSERRFKEPFKYRGHQH", "soluble on expression in E. coli": "soluble"}
{"sequence": "MIDLHCHSTVSDGMLSPAEVVRLAHQNGCTLLALTDHDHTGGIAEARAEADKLGLRLINGVEISVTWRGRTIHVVGLDFDEQDENLQNLLAQVRKGRLKRLEAIAAKLEKKGIGGAYDGALALAANKEMVSRTHVAEFLIQAGHVKNKQQAFTKYLGDGKSCAVRHEWATLEDCVSAVNGAGGMAVIAHPMRYDLSATAKRNLFEEFKNLGGAGIEVHSGNCCKNDRLNYALLAERFGMLASAGSDFHRLNDFSGGILGACPELPENCKPVWEHFSRY", "soluble on expression in E. coli": "not soluble"}
{"sequence": "GMTKAREFLGTGWKFPVAAGADGAMVLSSAEEDIAESIRIILGTARGERVMRPDFGCGIHDRVFSVINTTTLGLIENEVKEALILWEPRIELLSVTASPREAAEGRLLIDIEYRVRSTNTRFNLVYPFYLKESA", "soluble on expression in E. coli": "soluble"}
{"sequence": "MGTYKKEKSRIGREGANEKKPGNLRVKGENFYRNAKDVARVNMYRGGKAKYNAAGELVRAAEFQSSEVPKARIQPDRRWFNNTRVIAQPTLTQFREAMGQKLNDPYQVLLRRNKLPMSLLQENTEIPKVRVLESEPFENTFGPKSQRKRPKISFDSVAELAKESDEKQNAYEEKIEERILANPDESDDVMLAARDAIFSKGQSKRIWNELYKVIDSSDVLIQVLDARDPVGTRCGTVERYLRNEASHKHMILVLNKVDLVPTSVAAAWVKILAKEYPTIAFHASINNSFGKGSLIQILRQFASLHSDKKQISVGLIGFPNAGKSSIINTLRKKKVCNVAPIPGETKVWQYVALMKRIFLIDCPGIVPPSSNDSDAELLLKGVVRVENVSNPEAYIPTVLSRCKVKHLERTYEISGWNDSTEFLAKLAKKGGRLLKGGEPDEASVAKMVLNDFMRGKIPWFIGPKGLSSSNDEINSSQKVATQQTEGSDQDGEEAEEEWHGISDDGKADESESTKPVAEGSASESTDESAVDDNKNRS", "soluble on expression in E. coli": "not soluble"}
{"sequence": "RKRNRIPLRCTICRKRKVKCDKLRPHCQQCTKTGVAHLCHYMEQTWAEEAEKELLKDNELKKLRERVKSLEKTLSKVHSSP", "soluble on expression in E. coli": "soluble"}
{"sequence": "MGSDKIHHHHHHMERNTRVVKVANLKIGGNNPIIIQSMTNTNSADVEATVKQINNLEKVGCQLVRMTINNIKAAEAIKEIKKKVSLPLVADIHFDYRLALLAIKNGIDKLRINPGNIGSDENVKKVVEAAKEKNIPIRIGVNSGSIEKEILEKYGKPCVDALVESAMYHIRLLEKFDFFDIIVSLKSSNVKMMVEAYRKISSLVDYPLHLGVTEAGTKFQGTVKSAIGIGALLVDGIGDTLRVSLTENPVEEIKVAKEILKVLDLSDEGVEIISCPTCGRTEIDLIGLAKQVEEEFRTKKNKFKIAVMGCVVNGPGEAREADYGIAAGRGIGILFKKGEIIKKVSESNLLEELKKMISEDLENKKD", "soluble on expression in E. coli": "not soluble"}
{"sequence": "MSYTTDEVHFLLDLDAEITAVAGAITRDHAMTKATAVKDAATFHKHFGANGRAAMELCASRTSAQGKLPHDWLMCHDSSQQATPLTVAQQRAHRIHRVCGSEAIVHDVTCSIGTEGAAITDLGMAYHGSDLDMSRLLMARHNVPTGLFFQADALKRASTSSDVIIADPARRAEGRRITKPDQLIPPLPQLVDHWRIATTTAAPMAIKCAPGLDFQEWDGLVSVVSVAGGVKEACLYTPELSEGLTREAIMIGPDQSVDVLNDRHGGEVPAGDPGTFIIDPDGAVVRAGLVQHYAAREQLWMLDEHIAYLTGDRIPQGRSGFRFIEMVGLKQLKSALVAHDAGSLEILVRGVDVDPDQLRKKLKLKGNTPMAVICTRIGRKGVALICHAREHSQT", "soluble on expression in E. coli": "not soluble"}
{"sequence": "MVNAEEQQYLNLVQYIINHGEDRPDRTGTGTLSVFAPSPLKFSLRNKTFPLLTTKRVFIRGVIEELLWFIRGETDSLKLREKNIHIWDANGSREYLDSIGLTKRQEGDLGPIYGFQWRHFGAEYIDCKTNYIGQGVDQLANIIQKIRTSPYDRRLILSAWNPADLEKMALPPCHMFCQFYVHIPSNNHRPELSCQLYQRSCDMGLGVPFNIASYALLTCMIAHVCDLDPGDFIHVMGDCHIYKDHIEALQQQLTRSPRPFPTLSLNRSITDIEDFTLDDFNIQNYHPYETIKMKMSI", "soluble on expression in E. coli": "soluble"}
{"sequence": "MMTDEERIELQQNNPLHGLKLETLLQELVDFYGWEILDTAMRLNCFNTNPSVASSVKYLKKTEWAREKLENFYLYRFKRMPRASNLEYDKPPRARTFPHGLEPKEPMELTVDSILKSQAKAASAHKARTSNRGGNYRRLEHHHHHH", "soluble on expression in E. coli": "soluble"}
{"sequence": "MDPLLTVLKERMRACQRRVSDRPRRQVVAIEWIDPPMASGNWIPELIALAGGENMLGTAGKHSPYIEWSTLLAIDPEVILVMPCGFDLERTRQELDQALQTYPQWQQLRALQTGQLYILDGNAYFNRPGPRLVDSLEILVEILHPCPLEHHHHHH", "soluble on expression in E. coli": "soluble"}
{"sequence": "AEEFPVPNGFESAYREVDGVKLHYVKGGQGPLVMLVHGFGQTWYEWHQLMPELAKRFTVIAPDLPGLGQSEPPKTGYSGEQVAVYLHKLARQFSPDRPFDLVAHDIGIWNTYPMVVKNQADIARLVYMEAPIPDARIYRFPAFTAQGESLVWHFSFFAADDRLAETLIAGKERFFLEHFIKSHASNTEVFSERLLDLYARSYAKPHSLNASFEYYRALNESVRQNAELAKTRLQMPTMTLAGGGHGGMGTFQLEQMKAYAEDVEGHVLPGCGHWLPEECAAPMNRLVIDFLSRGRHHHHHH", "soluble on expression in E. coli": "soluble"}
{"sequence": "MAHHHHHHMYADDLSIIVKGQSREDAIPTANMVLKKLHAWSQENGLAISPSKCEAAWFTLSTHTESDYDREGKRPLVVAGCEIPVMTMGASRTTKLLGMDLDPRLTLNVAASKQCAASSQRISQLRCIAHKEAGPSPHDLRMFVIGYGASKLRYGSELIWAVATDSAKNEMQKTYATLARIVSGVPSTVDPESALLEANMPPLHVLCLRARLSIFENTRACQMDWMRRPPPEPPPRAVFRISPLSRDELYAFVDAYTKEYGITQSSPREERFFRSSIPPWFAASAHRVTIGVELPTDHSITEEQLIREKRRVSEEALALHSHRSWILAKSGGVDVPKSAGVGILLSSLNSSEIIEKASINCGARPCSYRTESRALLLALERLIIPRIQHRHETLLVVADSQSLLAALNKGPLSQTDWTEDQIWQRLLTLTCAGWSVRLQFFTDIVEYMLTSLRISMRRRLWRLDNTRSMESHIYGIRIC", "soluble on expression in E. coli": "not soluble"}
{"sequence": "MSILPSNTPLYSHPLPQIEQWLKDQGCQQDENELHCWRLQKPSWQAEIWLDIEQITVRYIQAGENGQNIQRSFKYSLSRQDIEQAIFCGP", "soluble on expression in E. coli": "not soluble"}
{"sequence": "MGSDKIHHHHHHVGTVNVRSGRMRYFTNRDAPLDVEHVMAPAAFPPGFPAVRLEAESYWDGGIYSNTPLEAVLDDRPRRDSVIFSVQLWPSSGPEPESILQVMSRQRDIQYSSRAESHLDRQKQIHRLRHVIRELGQHLPEEQRNAPAVRELLDWGCGTTMQVLELDAPAFDNDDLNRDIDFSSAGIERRWRAGYEDTARLLKLAPWRETLDPMEGISVFRMASAESRK", "soluble on expression in E. coli": "not soluble"}
{"sequence": "MIRNKAFVVRLYPNAAQTELINRTLGSARFVYNHFLARRIAAYKESGKGLTYGQTSSELTLLKQAEETSWLSEVDKFALQNSLKNLETAYKNFFRTVKQSGKKVGFPRFRKKRTGESYRTQFTNNNIQIGEGRLKLPKLGWVKTKGQQDIQGKILNVTVRRIHEGHYEASVLCEVEIPYLPAAPKFAAGVDVGIKDFAIVTDGVRFKHEQNPKYYRSTLKRLRKAQQTLSRRKKGSARYGKAKTKLARIHKRIVNKRQDFLHKLTTSLVREYEIIGTEHLKPDNMRKNRRLALSISDAGWGEFIRQLEYKAAWYGRLVSKVSPYFPSSQLCHDCGFKNPEVKNLAVRTWTCPNCGETHDRDENAALNIRREALVAAGISDTLNAHGGYVRPASAGNGLRSENHATLVVLEHHHHHH", "soluble on expression in E. coli": "soluble"}
{"sequence": "MKKGLTFSITSAALFFGMNHVASADQIHTVKEDAKLTDIAQTFATTTTEIQNLNHLQNRDYVQVGETIVLPDSDIVEVKDGDTIKAIAERHQMTMNQLYQLNPNLGEVIYPGQLVAVSEKGSAHLNNQLQQIFNSHEAVQPTAQINDDERNKAENNTIRNVRTSGNITPSATQTWQNNDYSASDRQQVSNTTANEQVTSNYQYSPVSHASNGSNYYDWGQCTYYAFDRRQQLGKSVGNLWGNANNWASAAQQSGYQVNNTPEVGAIFQSTAGNYGHVGVVESKNADGSIVVSEMNWQGVGQKSYRTIHNTGQYNYIHLEHHHHHH", "soluble on expression in E. coli": "not soluble"}
{"sequence": "MNHQARMRWRCRRGMLELDIVLQRFIDNHYEQLDEHQLELFEMLLSLSDHDLWNIIIGNTKEPNNQFQPVLKLLQENLEHHHHHH", "soluble on expression in E. coli": "soluble"}
{"sequence": "MGEEKKKRTVEITIGGKLRSFDIDDPVLPDWVEEKKLSAGNFPYDKKMKREDYDATLEALQVELVKVQFWLQATGKRVMAVFEGRDAAGKGGAIFATHAYLNPRYARVVALTKPTETERGQWYFQRYISHFPTAGEFVLFDRSWYNRAGVEPVMGFCTPDEHKRFLKETPRLEKMLVHDDIHLFKFWLDIGRETQIERFHDRRQSPLKCWKLSDMDIAALTKWDDYTQKRDEMLEKTHTDAAPWTVVRANDKRRARVNLIRHILLALDYEGKDRQAIGEIDDKILGSGPDFLK", "soluble on expression in E. coli": "not soluble"}
{"sequence": "MGSDKIHHHHHHMSAPDSAPGTERGHERTHFAVVGDSQDPAQATAPRAPAESITLIGIGTDGFEGLGLKAQQALQRASVVIGSWRQLNLVPDAIKAERRPWPGNTKHPDLDALFKEFLGRHVAVLASGDPLFYGVGTAMVHVLGMDRLTVIPGPSSASLACARLGWTVNRTRVVYLGQEPIETLIPIIESGAQFLVLGKDEFSTAQVATLLNELGLGETPLTVLSDLGSTDEEITQGTASHPPAAVSVLNVIAVGARTAMPKPHFEGDVSNEDLRALTVAALEPTQGQMLWTFGDIGAALACDWLRAAGNKAHAISFASMVEQSQRNARKLGVSTLSVKETLSPKTLKDIRYVQGPESASPHAIFMNKGLGIDLVPETAWMMLRPGGKLIAQASTEDNIAKLHTLQEQHGGIIKHIRIDDTDVHQWRVTKPVTPEAVN", "soluble on expression in E. coli": "not soluble"}
{"sequence": "MARTQYRAEEDDDEKVVDVINEDEEDENKSDIDEDFDEDEDEDEDKQESVKAALEKERKRGEALTNLERQAKRLGVSFDAAKAIKSGMSVEKAKNVVLTAAVSKSASLKLSTTAPHRDGTSKEKIHAKWETAWRAIK", "soluble on expression in E. coli": "not soluble"}
